In patent EP4491631A1 (Anaveon AG, dated 2025):

T1: IL-2R CD122-CD132 on Jurkat-PD1+ CD122+ cells (UniProt P14784 27-551; P31785 23-369)
T1 sequence (looked up) 1: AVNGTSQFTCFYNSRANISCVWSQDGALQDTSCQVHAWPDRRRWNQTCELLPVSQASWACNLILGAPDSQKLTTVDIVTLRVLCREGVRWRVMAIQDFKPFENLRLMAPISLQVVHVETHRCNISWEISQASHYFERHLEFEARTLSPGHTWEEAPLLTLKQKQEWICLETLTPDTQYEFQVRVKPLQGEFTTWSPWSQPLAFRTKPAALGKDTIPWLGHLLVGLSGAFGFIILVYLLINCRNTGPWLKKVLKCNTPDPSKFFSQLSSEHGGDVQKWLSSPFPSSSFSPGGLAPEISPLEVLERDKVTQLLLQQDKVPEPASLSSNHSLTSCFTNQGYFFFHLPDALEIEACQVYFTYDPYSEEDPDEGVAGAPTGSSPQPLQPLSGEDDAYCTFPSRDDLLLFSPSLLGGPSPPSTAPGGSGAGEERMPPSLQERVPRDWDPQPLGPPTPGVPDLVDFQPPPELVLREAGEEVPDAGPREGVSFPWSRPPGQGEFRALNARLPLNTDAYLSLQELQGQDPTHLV
T1 sequence (looked up) 2: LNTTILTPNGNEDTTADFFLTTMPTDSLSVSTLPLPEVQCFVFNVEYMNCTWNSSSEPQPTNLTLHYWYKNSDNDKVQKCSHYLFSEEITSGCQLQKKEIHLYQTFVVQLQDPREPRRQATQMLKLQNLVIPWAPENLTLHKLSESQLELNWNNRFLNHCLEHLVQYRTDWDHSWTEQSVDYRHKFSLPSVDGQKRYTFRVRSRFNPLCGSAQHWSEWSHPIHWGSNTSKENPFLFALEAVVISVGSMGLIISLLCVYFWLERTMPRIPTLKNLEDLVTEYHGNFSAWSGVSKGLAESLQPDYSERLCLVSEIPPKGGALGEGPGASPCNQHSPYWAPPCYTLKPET

B1: JLI141 (bispecific antibody, human IgG1, lambda, L234A L235A)
chain 1: EVQLLESGGGLVQPGGSLRLSCAASGFTFSINAMTWVRQAPGKGLEWVSTISGSGFSTYYADSLKGRFTISRDNSKNTLYLQMNSLRAEDTAVYYCAKEVYGDYWGQGTLVTVSSASTKGPSVFPLAPSSKSTSGGTAALGCLVKDYFPEPVTVSWNSGALTSGVHTFPAVLQSSGLYSLSSVVTVPSSSLGTQTYICNVNHKPSNTKVDKRVEPKSCDKTHTCPPCPAPEAAGGPSVFLFPPKPKDTLMISRTPEVTCVVVDVSHEDPEVKFNWYVDGVEVHNAKTKPREEQYNSTYRVVSVLTVLHQDWLNGKEYKCKVSNKALAAPIEKTISKAKGQPREPQVYTLPPSREEMTKNQVSLTCLVKGFYPSDIAVEWESNGQPENNYKTTPPVLDSDGSFFLTSKLTVDKSRWQQGNVFSCSVMHEALHNHYTQKSLSLSPGK
chain 2: not shown
chain 3: AIRLTQSPSSFSASTGDRVTITCKASQSVDYGGGNFHLRPRDLISNINVIVLELKGSETTFMCEYADETATIVEFLNRWITFSQSIISTLTPTSSSTKKTQLQLEHLLLDLQMILNGINNYKNPKLTRMLTFKFYMPKKATELKHLQCLEEELKPLEEVLNLAQSKGGGGDSYMNWYQQKPGKAPKLLIYAASNLESGVPSRFSGSGSGTDFTLTISSLQSEDFATYYCQQSNEDPYTFGGGTKVEIKGGGGSGGGGSGGGGSEVQLVQSGAEVKKPGESLKISCKGSGYAFTNYLIEWVRQMPGKGLEWMGVINPGSGGTNYNEKFKGQVTISADKSISTAYLQWSSLKASDTAMYYCARWRGEGYYAYFDVWGQGTTVTVSSGGGGSGGGGSEVQLLESGGGLVQPGGSLRLSCAASGFTFSINAMTWVRQAPGKGLEWVSTISGSGFSTYYADSLKGRFTISRDNSKNTLYLQMNSLRAEDTAVYYCAKEVYGDYWGQGTLVTVSSASTKGPSVFPLAPSSKSTSGGTAALGCLVKDYFPEPVTVSWNSGALTSGVHTFPAVLQSSGLYSLSSVVTVPSSSLGTQTYICNVNHKPSNTKVDKRVEPKSCDKTHTCPPCPAPEAAGGPSVFLFPPKPKDTLMISRTPEVTCVVVDVSHEDPEVKFNWYVDGVEVHNAKTKPREEQYNSTYRVVSVLTVLHQDWLNGKEYKCKVSNKALAAPIEKTISKAKGQPREPQVYTLPPSREEMTKNQVSLYCLVKGFYPSDIAVEWESNGQPENNYKTTPPVLDSDGSFFLYSKLTVDKSRWQQGNVFSCSVMHEALHNHYTQKSLSLSPGK
B2: GQM289 (bispecific antibody, human IgG1, kappa, lambda, L234A L235A)
chain 1: EVQLLESGGGLVQPGGSLRLSCAASGFTFSINAMTWVRQAPGKGLEWVSTISGSGFSTYYADSLKGRFTISRDNSKNTLYLQMNSLRAEDTAVYYCAKEVYGDYWGQGTLVTVSSASTKGPSVFPLAPSSKSTSGGTAALGCLVKDYFPEPVTVSWNSGALTSGVHTFPAVLQSSGLYSLSSVVTVPSSSLGTQTYICNVNHKPSNTKVDKRVEPKSCDKTHTCPPCPAPEAAGGPSVFLFPPKPKDTLMISRTPEVTCVVVDVSHEDPEVKFNWYVDGVEVHNAKTKPREEQYNSTYRVVSVLTVLHQDWLNGKEYKCKVSNKALAAPIEKTISKAKGQPREPQVYTLPPSREEMTKNQVSLTCLVKGFYPSDIAVEWESNGQPENNYKTTPPVLDSDGSFFLTSKLTVDKSRWQQGNVFSCSVMHEALHNHYTQKSLSLSPGK
chain 2: not shown
chain 3: EVQLVQSGAEVKKPGESLKISCKGSGYAFTNYLIEWVRQMPGKGLEWMGVINPGSGGTNYNEKFKGQVTISADKSISTAYLQWSSLKASDTAMYYCARWRGEGYYAYFDVWGQGTTVTVSSASTKGPSVFPLAPSSKSTSGGTAALGCLVKDYFPEPVTVSWNSGALTSGVHTFPAVLQSSGLYSLSSVVTVPSSSLGTQTYICNVNHKPSNTKVDKRVEPKSCDKTHTCPPCPAPEAAGGPSVFLFPPKPKDTLMISRTPEVTCVVVDVSHEDPEVKFNWYVDGVEVHNAKTKPREEQYNSTYRVVSVLTVLHQDWLNGKEYKCKVSNKALAAPIEKTISKAKGQPREPQVYTLPPSREEMTKNQVSLYCLVKGFYPSDIAVEWESNGQPENNYKTTPPVLDSDGSFFLYSKLTVDKSRWQQGNVFSCSVMHEALHNHYTQKSLSLSPGK
chain 4: not shown
B3: XWY176 (bispecific antibody, human IgG1, kappa, lambda, L234A L235A)
chain 1: EVQLLESGGGLVQPGGSLRLSCAASGFTFSINAMTWVRQAPGKGLEWVSTISGSGFSTYYADSLKGRFTISRDNSKNTLYLQMNSLRAEDTAVYYCAKEVYGDYWGQGTLVTVSSASTKGPSVFPLAPSSKSTSGGTAALGCLVKDYFPEPVTVSWNSGALTSGVHTFPAVLQSSGLYSLSSVVTVPSSSLGTQTYICNVNHKPSNTKVDKRVEPKSCDKTHTCPPCPAPEAAGGPSVFLFPPKPKDTLMISRTPEVTCVVVDVSHEDPEVKFNWYVDGVEVHNAKTKPREEQYNSTYRVVSVLTVLHQDWLNGKEYKCKVSNKALAAPIEKTISKAKGQPREPQVYTLPPSREEMTKNQVSLTCLVKGFYPSDIAVEWESNGQPENNYKTTPPVLDSDGSFFLTSKLTVDKSRWQQGNVFSCSVMHEALHNHYTQKSLSLSPGK
chain 2: not shown
chain 3: EVQLVQSGAEVKKPGESLKISCKGSGYAFTNYLIEWVRQMPGKGLEWMGVINPGSGGTNYNEKFKGQVTISADKSISTAYLQWSSLKASDTAMYYCARWRGEGYYAYFDVWGQGTTVTVSSASTKGPSVFPLAPSSKSTSGGTAALGCLVKDYFPEPVTVSWNSGALTSGVHTFPAVLQSSGLYSLSSVVTVPSSSLGTQTYICNVNHKPSNTKVDKRVEPKSCDKTHTCPPCPAPEAAGGPSVFLFPPKPKDTLMISRTPEVTCVVVDVSHEDPEVKFNWYVDGVEVHNAKTKPREEQYNSTYRVVSVLTVLHQDWLNGKEYKCKVSNKALAAPIEKTISKAKGQPREPQVYTLPPSREEMTKNQVSLYCLVKGFYPSDIAVEWESNGQPENNYKTTPPVLDSDGSFFLYSKLTVDKSRWQQGNVFSCSVMHEALHNHYTQKSLSLSPGK
chain 4: not shown
B4: LTJ498 (bispecific antibody, human IgG1, lambda, L234A L235A)
chain 1: EVQLLESGGGLVQPGGSLRLSCAASGFTFSINAMTWVRQAPGKGLEWVSTISGSGFSTYYADSLKGRFTISRDNSKNTLYLQMNSLRAEDTAVYYCAKEVYGDYWGQGTLVTVSSASTKGPSVFPLAPSSKSTSGGTAALGCLVKDYFPEPVTVSWNSGALTSGVHTFPAVLQSSGLYSLSSVVTVPSSSLGTQTYICNVNHKPSNTKVDKRVEPKSCDKTHTCPPCPAPEAAGGPSVFLFPPKPKDTLMISRTPEVTCVVVDVSHEDPEVKFNWYVDGVEVHNAKTKPREEQYNSTYRVVSVLTVLHQDWLNGKEYKCKVSNKALAAPIEKTISKAKGQPREPQVYTLPPSREEMTKNQVSLTCLVKGFYPSDIAVEWESNGQPENNYKTTPPVLDSDGSFFLTSKLTVDKSRWQQGNVFSCSVMHEALHNHYTQKSLSLSPGK
chain 2: not shown
chain 3: AIRLTQSPSSFSASTGDRVTITCKASQSVDYGGGNFHLRPRDLISNINVIVLELKGSETTFMCEYADETATIVEFLNRWITFSQSIISTLTPTSSSTKKTQLQLEHLLLDLQMILNGINNYKNPKLTRMLTFKFYMPKKATELKHLQCLEEELKPLEEVLNLAQSKGGGGDSYMNWYQQKPGKAPKLLIYAASNLESGVPSRFSGSGSGTDFTLTISSLQSEDFATYYCQQSNEDPYTFGGGTKVEIKGGGGSGGGGSGGGGSEVQLVQSGAEVKKPGESLKISCKGSGYAFTNYLIEWVRQMPGKGLEWMGVINPGSGGTNYNEKFKGQVTISADKSISTAYLQWSSLKASDTAMYYCARWRGEGYYAYFDVWGQGTTVTVSSGGGGSGGGGSEVQLLESGGGLVQPGGSLRLSCAASGFTFSINAMTWVRQAPGKGLEWVSTISGSGFSTYYADSLKGRFTISRDNSKNTLYLQMNSLRAEDTAVYYCAKEVYGDYWGQGTLVTVSSASTKGPSVFPLAPSSKSTSGGTAALGCLVKDYFPEPVTVSWNSGALTSGVHTFPAVLQSSGLYSLSSVVTVPSSSLGTQTYICNVNHKPSNTKVDKRVEPKSCDKTHTCPPCPAPEAAGGPSVFLFPPKPKDTLMISRTPEVTCVVVDVSHEDPEVKFNWYVDGVEVHNAKTKPREEQYNSTYRVVSVLTVLHQDWLNGKEYKCKVSNKALAAPIEKTISKAKGQPREPQVYTLPPSREEMTKNQVSLYCLVKGFYPSDIAVEWESNGQPENNYKTTPPVLDSDGSFFLYSKLTVDKSRWQQGNVFSCSVMHEALHNHYTQKSLSLSPGK

biological target: T1, IL-2R CD122-CD132 on Jurkat-PD1+ CD122+ …; assay: cell-based or functional assay

Binder | EC50 value for pSTAT5 induction [nM]
B1 | 0.2
B2 | 0.22
B3 | 0.27
B4 | 0.24
